Experiment [1] deals with T1, IL-4R on HEK-Blue cells (human, UniProt P24394 26-825). Kind of experiment: cell-based or functional assay.
For the next experiment, the target named is T2, cynomolgus IL-4R-Fc (cynomolgus monkey (Macaca fascicularis), UniProt A0A2K5V580 33-239).
T2 construct: also called cynomolgus IL-4R (capture setup); not shown: Fc part
Kind of experiment: SPR, capture setup: cynomolgus IL-4R-Fc captured, scFv as analyte.

Another experiment deals with T3, Biotinylated IL-4R (human, UniProt P24394 26-232, limits assumed, biotinylated).
T3 construct: also called human IL-4R; hIL-4R
Kind of experiment: competitive ELISA: IL-4 coated, biotinylated IL-4R preincubated with scFv. An excerpt: Bound biotinylated IL-4R was then detected using streptavidin-HRP.

A further experiment addresses T4, Human IL-4R-Fc (human, UniProt P24394 26-232).
T4 construct: not shown: Fc part (captured via anti-human IgG-Fc)
Kind of experiment: SPR (Biacore T200), human IL-4R-Fc captured, scFv as analyte 0.12 to 90 nM, 1:1 model. The protocol:
Affinity of the 16 humanized scFvs (derived from 5 rabbit monoclonal antibodies) to human IL-4R was determined by SPR analysis on a T200 device (Biacore, GE Healthcare). Human IL-4R-Fc was captured via an anti-human IgG-Fc coupled to a carboxylmethylated dextran surface and the scFvs were injected as analyte. After each analyte injection cycle the sensor chip was regenerated and new antigen was captured. The scFvs were measured using a dose response multi-cycle kinetic assay with seven analyte concentrations ranging from 0.12 to 90 nM diluted in running buffer. Obtained sensorgrams were fitted using a 1:1 binding model.
The scFvs were measured using a dose response multi-cycle kinetic assay with seven analyte concentrations ranging from 0.12 to 90 nM diluted in running buffer. Obtained sensorgrams were fitted using a 1:1 binding model.

Experiment [2] addresses T1, IL-4R on HEK-Blue cells. Kind of experiment: cell-based or functional assay. This is another data set of the same source.
Experiment [3] concerns the target T1, IL-4R on HEK-Blue cells. Kind of experiment: cell-based or functional assay. The source holds these as a separate data set.
In experiment [4] the target is T5, recombinant cynomolgus monkey IL-4R (ECD with His-tag, Acro Biosystems) (cynomolgus monkey, UniProt A0A2K5V556 26-232).
T5 construct: analyte in the SPR of the Morrison-H antibodies; also called cynomolgus IL-4R
Kind of experiment: SPR (Biacore T200), Morrison antibody captured via anti-human IgG-Fc, cynomolgus IL-4R ECD-His as analyte, 1:1 model. The protocol: (§1) In this SPR experiment, Morrison molecules were captured via an anti-human IgG-Fc antibody (Human Antibody Capture Kit; Biacore, Cytiva) covalently immobilized to a carboxylmethylated dextran surface (CM5 sensorchip; Biacore, Cytiva) and a titration series of human IL-4R ECD was injected as analyte. After each analyte injection cycle, the sensor chip was regenerated (MgCl₂), and new Morrison antibody was subsequently re-captured. […] The apparent dissociation (kd) and association (kₐ) rate constants and the apparent dissociation equilibrium constant (KD) were calculated with the Biacore analysis software (Biacore Evaluation software Version 3.2, Cytiva) using one-to-one Langmuir binding model and quality of the fits was monitored based on Chi2 and U-value, which are measures for the quality of the curve fitting. The binding level was calculated as the maximum stability binding achieved normalized to the theoretical Rmax. Cross-reactivity to cynomolgus monkey IL-4R was measured using the same setup as for the analysis of human IL-4R kinetics, with the difference that recombinant cynomolgus monkey IL-4R (ECD with His-tag, Acro Biosystems) protein was used as analyte instead of human IL-4R.

Experiment [5] has as its target T6, recombinant human IL-4R protein (ECD with His Tag, Sino Biological) (human, UniProt P24394 26-232).
T6 construct: extracellular domain; analyte in the SPR of the Morrison-H antibodies; also called human IL-4R ECD; not shown: His tag
Kind of experiment: SPR (Biacore T200), Morrison antibody captured via anti-human IgG-Fc, human IL-4R ECD-His as analyte 0.175 to 45 nM, 1:1 model. On the procedure: as §1

B1: PRO1898 (scFv)
scFv: DIQMTQSPSSLSARVGDRVTITCQASEDIESYLAWYQQKPGKAPKLLIYRASTLAYGVPSRFSGSGSGRDFTLTISSLQPEDFATYYCLGSSYSTGSNIFGTGTKVTVLGGGGGSGGGGSGGGGSGGGGSEVQLVESGGGLVQPGGSLRLSCAASGFSSSSAHYMCWVRQAPGKGLEWIGCIYAGSRGSTYYASWAKGRFTISRDNSKNTVYLQMNSLRAEDTAVYYCARAAFVNRGVSWIWPYYFSLWGQGTLVTVSS
notes: optimized variant of PRO1517 (VL S14R, T87R, AHo numbering); scFv VL-linker-VH; also called 44-34-C10-sc08
With B1, in the experiment with IL-4R on HEK-Blue cells [1], the “IC50, neutralization of hIL-4 induced signaling in reporter gene assay” value came to 1 ng/mL; the “IC50, neutralization of hIL-13 induced signaling in reporter gene assay” value worked out at 1.15 ng/mL; the “rel. IC50 (IC50, dupilumab/IC50, test sample), hIL-4 induced signaling” value stood at 1.15 ratio; the “rel. IC50 (IC50, dupilumab/IC50, test sample), hIL-13 induced signaling” value turned out to be 0.87 ratio. In the experiment with cynomolgus IL-4R-Fc, this molecule showed a Kd of 0.0908 nM, a koff of 0.000109 s⁻¹ and a kon of 1.2e+06 M⁻¹ s⁻¹. Further, in the experiment with Biotinylated IL-4R, the IC50 amounted to 3.41 ng/mL and the “rel. IC50 (IC50, dupilumab/IC50, test sample)” value amounted to 1.95 ratio. In the experiment with Human IL-4R-Fc, this molecule displayed a Kd of 0.00791 nM, a koff of 1.7e-05 s⁻¹ and a kon of 2.15e+06 M⁻¹ s⁻¹.

B2: PRO2198 (bispecific antibody, human IgG4 S228P, kappa)
light: DIQMTQSPSSLSARVGDRVTITCQASEDIESYLAWYQQKPGKAPKLLIYRASTLAYGVPSRFSGSGSGRDFTLTISSLQPEDFATYYCLGSSYSTGSNIFGQGTKVEIKRTVAAPSVFIFPPSDEQLKSGTASVVCLLNNFYPREAKVQWKVDNALQSGNSQESVTEQDSKDSTYSLSSTLTLSKADYEKHKVYACEVTHQGLSSPVTKSFNRGEC
heavy: not shown
notes: IgG4 (S228P) Morrison-H, IgG4-(scFv)2: Fab arms 44-34-C10-sc08 (anti-IL-4R), anti-IL-31 scFv 50-09-D07-sc04 fused to the C-terminus of the heavy chain; also called Morrison-H antibody PRO2198; anti-IL-4RxIL-31 bispecific antibody
For B2, in the experiment with IL-4R on HEK-Blue cells [2], the “Mean IC50, neutralization of human IL-4-induced signaling in the stat-6 reporter gene assay” value was 0.0239 nM; the “Mean rel. IC50 [IC50 dupilumab/IC50 sample], human IL-4-induced signaling” value was determined as 0.42 ratio; the “Retained IC50 with and without IL-31 excess (n = 1) [IC50, no IL-31/IC50, with IL-31]” value turned out to be 0.71 ratio. For the same molecule, in the experiment with IL-4R on HEK-Blue cells [3], the “Mean IC50, neutralization of human IL-13 induced signaling in the stat-6 reporter gene assay” value is 0.0221 nM and the “Mean rel. IC50 [IC50 dupilumab/IC50 sample], human IL-13 induced signaling” value is 0.42 ratio. In addition, in experiment [4], the Kd came to 0.144 nM, the koff is 4.9e-05 s⁻¹ and the kon was found to be 370000 M⁻¹ s⁻¹. Moreover, in experiment [5], the Kd turned out to be 0.291 nM, the koff came out at 0.000101 s⁻¹ and the kon was determined as 352000 M⁻¹ s⁻¹.

B3: PRO2199 (bispecific antibody, human IgG4 S228P, kappa)
light: DIQMTQSPSSLSASVGDRVTITCQASEDIESYLAWYQQKPGKAPKLLIYRASTLAYGVPSRFSGSGSGTDFTLTISSLQPEDFATYYCLGSSYSTGSNIFGQGTKVEIKRTVAAPSVFIFPPSDEQLKSGTASVVCLLNNFYPREAKVQWKVDNALQSGNSQESVTEQDSKDSTYSLSSTLTLSKADYEKHKVYACEVTHQGLSSPVTKSFNRGEC
heavy: not shown
notes: IgG4 (S228P) Morrison-H, IgG4-(scFv)2: Fab arms 44-34-C10-sc09 (anti-IL-4R), anti-IL-31 scFv 50-09-D07-sc04 fused to the C-terminus of the heavy chain; also called Morrison-H antibody PRO2199; anti-IL-4RxIL-31 bispecific antibody
B3: in the experiment with IL-4R on HEK-Blue cells [2], the “Mean IC50, neutralization of human IL-4-induced signaling in the stat-6 reporter gene assay” value is 0.0115 nM; the “Mean rel. IC50 [IC50 dupilumab/IC50 sample], human IL-4-induced signaling” value turned out to be 0.72 ratio; the “Retained IC50 with and without IL-31 excess (n = 1) [IC50, no IL-31/IC50, with IL-31]” value was determined as 1.25 ratio. In the experiment with IL-4R on HEK-Blue cells [3], the “Mean IC50, neutralization of human IL-13 induced signaling in the stat-6 reporter gene assay (single analysis)” value was found to be 0.0113 nM and the “Mean rel. IC50 [IC50 dupilumab/IC50 sample], human IL-13 induced signaling (single analysis)” value was 0.69 ratio. Moreover, in experiment [4], the Kd came to 0.0351 nM, the koff was determined as 3.44e-05 s⁻¹ and the on-rate (kon) came out at 980000 M⁻¹ s⁻¹. In experiment [5], the Kd is 0.197 nM, the koff stood at 5.76e-05 s⁻¹ and the kon is 293000 M⁻¹ s⁻¹.

The record behind these values is patent US20250282880A1 (NUMAB THERAPEUTICS, published 2025).
